The target in the experiment is T1, Rat TRPV2 (transient receptor potential vanilloid 2 channel), full length, C-terminal 1D4 tag (rat), Q9WUD2.
T1 chain: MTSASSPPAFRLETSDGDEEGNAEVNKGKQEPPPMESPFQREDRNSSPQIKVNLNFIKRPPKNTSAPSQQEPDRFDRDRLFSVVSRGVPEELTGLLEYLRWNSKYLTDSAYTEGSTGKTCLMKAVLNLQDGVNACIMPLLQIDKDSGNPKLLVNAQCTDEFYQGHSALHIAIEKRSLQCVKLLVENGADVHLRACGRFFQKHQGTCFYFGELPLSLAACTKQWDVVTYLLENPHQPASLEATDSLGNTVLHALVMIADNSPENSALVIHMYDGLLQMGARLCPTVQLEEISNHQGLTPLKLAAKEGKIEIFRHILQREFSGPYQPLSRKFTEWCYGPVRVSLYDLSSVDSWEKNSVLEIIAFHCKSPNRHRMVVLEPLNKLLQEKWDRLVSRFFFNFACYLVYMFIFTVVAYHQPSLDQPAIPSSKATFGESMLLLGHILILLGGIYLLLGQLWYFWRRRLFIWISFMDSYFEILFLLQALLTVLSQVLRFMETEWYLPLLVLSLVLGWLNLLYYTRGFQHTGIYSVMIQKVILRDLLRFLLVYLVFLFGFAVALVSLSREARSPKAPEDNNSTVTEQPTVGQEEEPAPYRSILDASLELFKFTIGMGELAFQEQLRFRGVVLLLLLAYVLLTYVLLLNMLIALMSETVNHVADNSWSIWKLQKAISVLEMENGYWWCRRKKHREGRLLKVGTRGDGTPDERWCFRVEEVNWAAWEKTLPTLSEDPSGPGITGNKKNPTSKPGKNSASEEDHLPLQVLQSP
Nature of the experiment: high-speed atomic force microscopy (HS-AFM); TRPV2 reconstituted into soy polar lipid membranes (LPR 0.5-0.7) on mica; imaging buffer 20 mM Hepes pH 8.0, 150 mM NaCl; contacts between neighbouring tetramers scored as connected or not in binarised frames; dwell times fitted with a single exponential; thick continuous connections excluded. Particulars: remark: other sources report otherwise.

One molecule from article PMC10516966 can be followed below.

B1: Rat TRPV2 (transient receptor potential vanilloid 2 channel), full length, C-terminal 1D4 tag, Q9WUD2 1-761 (natural protein)
chain: MTSASSPPAFRLETSDGDEEGNAEVNKGKQEPPPMESPFQREDRNSSPQIKVNLNFIKRPPKNTSAPSQQEPDRFDRDRLFSVVSRGVPEELTGLLEYLRWNSKYLTDSAYTEGSTGKTCLMKAVLNLQDGVNACIMPLLQIDKDSGNPKLLVNAQCTDEFYQGHSALHIAIEKRSLQCVKLLVENGADVHLRACGRFFQKHQGTCFYFGELPLSLAACTKQWDVVTYLLENPHQPASLEATDSLGNTVLHALVMIADNSPENSALVIHMYDGLLQMGARLCPTVQLEEISNHQGLTPLKLAAKEGKIEIFRHILQREFSGPYQPLSRKFTEWCYGPVRVSLYDLSSVDSWEKNSVLEIIAFHCKSPNRHRMVVLEPLNKLLQEKWDRLVSRFFFNFACYLVYMFIFTVVAYHQPSLDQPAIPSSKATFGESMLLLGHILILLGGIYLLLGQLWYFWRRRLFIWISFMDSYFEILFLLQALLTVLSQVLRFMETEWYLPLLVLSLVLGWLNLLYYTRGFQHTGIYSVMIQKVILRDLLRFLLVYLVFLFGFAVALVSLSREARSPKAPEDNNSTVTEQPTVGQEEEPAPYRSILDASLELFKFTIGMGELAFQEQLRFRGVVLLLLLAYVLLTYVLLLNMLIALMSETVNHVADNSWSIWKLQKAISVLEMENGYWWCRRKKHREGRLLKVGTRGDGTPDERWCFRVEEVNWAAWEKTLPTLSEDPSGPGITGNKKNPTSKPGKNSASEEDHLPLQVLQSP
B1: the connection lifetime time constant came to 2.2 s.
